± gives the standard deviation of the averaged measurements.
Experiment: total protein half-life in vivo (active degradation + dilution); higher = more stable protein
[1] = E. coli NCM3722 delta-clpP delta-lon delta-hslV, growth: N-lim chemostat, doubling time 6 h
[2] = E. coli NCM3722 delta-hslV, growth: N-lim chemostat, doubling time 6 h
[3] = E. coli NCM3722 delta-lon, growth: N-lim chemostat, doubling time 6 h
[4] = E. coli NCM3722 delta-smpB, growth: N-lim chemostat, doubling time 6 h
[5] = wild type E. coli NCM3722, growth: C-lim chemostat, doubling time 3 h
[6] = wild type E. coli NCM3722, growth: C-lim chemostat, doubling time 6 h
[7] = wild type E. coli NCM3722, growth: N-lim chemostat, doubling time 6 h
[8] = wild type E. coli NCM3722, growth: N-lim chemostat, doubling time 12 h
[9] = wild type E. coli NCM3722, growth: P-lim chemostat, doubling time 6 h
[10] = wild type E. coli NCM3722, growth: P-lim chemostat, doubling time 12 h
[11] = E. coli NCM3722 delta-clpP, growth: N-lim chemostat, doubling time 6 h
[12] = wild type E. coli NCM3722, growth: C-lim chemostat, doubling time 12 h

Sequence | total protein half-life in vivo [1] [h] | total protein half-life in vivo [2] [h] | total protein half-life in vivo [3] [h] | total protein half-life in vivo [4] [h] | total protein half-life in vivo [5] [h] | total protein half-life in vivo [6] [h] | total protein half-life in vivo [7] [h] | total protein half-life in vivo [8] [h] | total protein half-life in vivo [9] [h] | total protein half-life in vivo [10] [h] | total protein half-life in vivo [11] [h] | total protein half-life in vivo [12] [h]
MIARWFWREWRSPSLLIVWLALSLAVACVLALGNISDRMEKGLSQQSREFMAGDRALRSSREVPQAWLEEAQKRGLKVGKQLTFATMTFAGDTPQLANVKAVDDIYPMYGDLQTNPPGLKPQAGSVLLAPRLMALLNLKTGDTIDVGDATLRIAGEVIQEPDSGFNPFQMAPRLMMNLADVDKTGAVQPGSRVTWRYKFGGNENQLDGYEKWLLPQLKPEQRWYGLEQDEGALGRSMERSQQFLLLSALLTLLLAVAAVAVAMNHYCRSRYDLVAILKTLGAGRAQLRKLIVGQWLMVLTLSAVTGGAIGLLFENVLMVLLKPVLPAALPPASLWPWLWALGTMTVISLLVGLRPYRLLLATQPLRVLRNDVVANVWPLKFYLPIVSVVVVLLLAGLMGGSMLLWAVLAGAVVLALLCGVLGWMLLNVLRRMTLKSLPLRLAVSRLLRQPWSTLSQLSAFSLSFMLLALLLVLRGDLLDRWQQQLPPESPNYFLINIATEQVAPLKAFLAEHQIVPESFYPVVRARLTAINDKPTEGNEDEALNRELNLTWQNTRPDHNPIVAGNWPPKADEVSMEEGLAKRLNVALGDTVTFMGDTQEFRAKVTSLRKVDWESLRPNFYFIFPEGALDGQPQSWLTSFRWENGNGMLTQLNRQFPTISLLDIGAILKQVGQVLEQVSRALEVMVVLVTACGMLLLLAQVQVGMRQRHQELVVWRTLGAGKKLLRTTLWCEFAMLGFVSGLVAAIGAETALAVLQAKVFDFPWEPDWRLWIVLPCSGALLLSLFGGWLGARLVKGKALFRQFAG | 6.27 ± 0.098 | 6.06 ± 0.42 | 6.45 ± 0.35 | 6.86 ± 0.47 | 3.48 ± 0.66 | 6.92 ± 1.4 | 6.21 ± 1.2 | 13.3 ± 1.4 | 5.85 ± 0.5 | 10.5 ± 0.91 | – | –
MNTLPEHSCDVLIIGSGAAGLSLALRLADQHQVIVLSKGPVTEGSTFYAQGGIAAVFDETDSIDSHVEDTLIAGAGICDRHAVEFVASNARSCVQWLIDQGVLFDTHIQPNGEESYHLTREGGHSHRRILHAADATGREVETTLVSKALNHPNIRVLERSNAVDLIVSDKIGLPGTRRVVGAWVWNRNKETVETCHAKAVVLATGGASKVYQYTTNPDISSGDGIAMAWRAGCRVANLEFNQFHPTALYHPQARNFLLTEALRGEGAYLKRPDGTRFMPDFDERGELAPRDIVARAIDHEMKRLGADCMFLDISHKPADFIRQHFPMIYEKLLGLGIDLTQEPVPIVPAAHYTCGGVMVDDHGRTDVEGLYAIGEVSYTGLHGANRMASNSLLECLVYGWSAAEDITRRMPYAHDISTLPPWDESRVENPDERVVIQHNWHELRLFMWDYVGIVRTTKRLERALRRITMLQQEIDEYYAHFRVSNNLLELRNLVQVAELIVRCAMMRKESRGLHFTLDYPELLTHSGPSILSPGNHYINR | 4 ± 0.14 | 2.28 ± 0.26 | 4.14 ± 1.7 | 2.39 ± 0.22 | 2.68 ± 0.063 | 4.41 ± 0.59 | 2.58 ± 0.22 | 3.51 ± 0.061 | 4.69 ± 0.27 | 8.21 ± 0.71 | 2.44 ± 0.11 | 8.41 ± 0.56
MSEKVVFSQLSRKFIDENDATPAEAQQVVYYSLAIGHHLGVIDCLEAALTCPWDEYLAWIATLEAGSEARRKMEGVPKYGEIVIDINHVPMLANAFDKARAAQTSQQQEWSTMLLSMLHDIHQENAIYLMVRRLRD [P0AEV7] | 3.73 | – | 2.37 ± 0.25 | 1.7 | 2.34 | 3.73 | 2.24 ± 0.23 | 2.34 | 3.21 | 6.49 ± 0.1 | 2.63 | 6.99
MWDVIDLSRWQFALTALYHFLFVPLTLGLIFLLAIMETIYVVTGKTIYRDMTRFWGKLFGINFALGVATGLTMEFQFGTNWSFYSNYVGDIFGAPLAMEALMAFFLESTFVGLFFFGWQRLNKYQHLLVTWLVAFGSNLSALWILNANGWMQYPTGAHFDIDTLRMEMTSFSELVFNPVSQVKFVHTVMAGYVTGAMFIMAISAWYLLRGRERNVALRSFAIGSVFGTLAIIGTLQLGDSSAYEVAQVQPVKLAAMEGEWQTEPAPAPFHVVAWPEQDQERNAFALKIPALLGILATHSLDKPVPGLKNLMAETYPRLQRGRMAWLLMQEISQGNREPHVLQAFRGLEGDLGYGMLLSRYAPDMNHVTAAQYQAAMRGAIPQVAPVFWSFRIMVGCGSLLLLVMLIALVQTLRGKIDQHRWVLKMALWSLPLPWIAIEAGWFMTEFGRQPWAIQDILPTYSAHSALTTGQLAFSLIMIVGLYTLFLIAEVYLMQKYARLGPSAMQSEQPTQQQG | 3.4 | 4.58 ± 0.54 | 1.46 | 1.93 | – | – | 5.27 ± 0.94 | 14.6 | 0.869 | 2.11 | – | –
MMNNKVSFTNSNNPTISLSAVIYFPPKFDETRQYQAIVLSHPGGGVKEQTAGTYAKKLAEKGFVTIAYDASYQGESGGEPRQLENPYIRTEDISAVIDYLTTLSYVDNTRIGAMGICAGAGYTANAAIQDRRIKAIGTVSAVNIGSIFRNGWENNVKSIDALPYVEAGSNARTSDISSGEYAIMPLAPMKESDAPNEELRQAWEYYHTPRAQYPTAPGYATLRSLNQIITYDAYHMAEVYLTQPTQIVAGSQAGSKWMSDDLYDRASSQDKRYHIVEGANHMDLYDGKAYVAEAISVLAPFFEETL | 6.23 ± 1.9 | 4.23 ± 0.18 | – | 4.02 ± 0.44 | – | 6.58 ± 0.55 | 4.088 ± 0.028 | 6.51 ± 0.44 | 6.21 ± 0.18 | 13.7 ± 2.8 | 4.63 ± 0.35 | 11.2 ± 1.6
MLVSKKPMVLVILDGYGYREEQQDNAIFSAKTPVMDALWANRPHTLIDASGLEVGLPDRQMGNSEVGHVNLGAGRIVYQDLTRLDVEIKDRAFFANPVLTGAVDKAKNAGKAVHIMGLLSAGGVHSHEDHIMAMVELAAERGAEKIYLHAFLDGRDTPPRSAESSLKKFEEKFAALGKGRVASIIGRYYAMDRDNRWDRVEKAYDLLTLAQGEFQADTAVAGLQAAYARDENDEFVKATVIRAEGQPDAAMEDGDALIFMNFRADRAREITRAFVNADFDGFARKKVVNVDFVMLTEYAADIKTAVAYPPASLVNTFGEWMAKNDKTQLRISETEKYAHVTFFFNGGVEESFKGEDRILINSPKVATYDLQPEMSSAELTEKLVAAIKSGKYDTIICNYPNGDMVGHTGVMEAAVKAVEALDHCVEEVAKAVESVGGQLLITADHGNAEQMRDPATGQAHTAHTNLPVPLIYVGDKNVKAVEGGKLSDIAPTMLSLMGMEIPQEMTGKPLFIVE | 5.19 ± 0.06 | 5.19 ± 0.44 | 4.97 ± 0.22 | 4.458 ± 0.033 | 2.85 ± 0.1 | 5.58 ± 0.34 | 4.76 ± 0.1 | 7.769 ± 0.048 | 5.1 ± 0.24 | 10.35 ± 0.034 | 5.05 ± 0.79 | 10 ± 1.6
